Reference: doi:10.1101/2025.02.19.639038 (bioRxiv, 2025)
Where “and” joins values, the source holds several entries; their conditions need not be identical. Equal entries are not always repeated.

How the values were obtained:
[1] = biological target: Drp6-4A (Drp6 GKFR-AAAA), N-terminal His6 tag (Tetrahymena thermophila) (UniProt Q38KF5); experiment: SEC
[2] = biological target: Drp6-4A (Drp6 GKFR-AAAA), N-terminal His6 tag (Tetrahymena thermophila) (UniProt Q38KF5)
[3] = biological target: the molecule itself; experiment: SEC

“Drp6-4A (Drp6 GKFR-AAAA), N-terminal His6 tag (from UniProt Q38KF5 1-710) (natural protein)” showed a percent eluted in the tetramer peak (peak2) [1] of 19%, a stoichiometry N [1] of 4 and a GTP hydrolysis rate (colorimetric Pi release, 1 μM protein, 1 mM GTP) [2] of 0.83 μM /μM/min.

B1: Dynamin-related protein 6 (Drp6), wild type, N-terminal His6 tag (natural protein, Tetrahymena thermophila, UniProt Q38KF5 1-710, looked up)
chain: MTNTIVPANNFQNIKEVIKVVNKLRDFGIESDKIQLPKIVVIGVQSSGKSSLLEQIVQLDFLPRGTGVVTRCPLEIRLIEVTNQDSDFKPYAYFFEERQKIFHDFELVKKEIQKITNDFAGPGKKIVDKVITLTIYQAQCPTLTLIDLPGMTLNSVGDQKDIERVTQDMTKKYIIEKTTIILCVIPINQDLENSLALNLARSVDENGERTIGVLTMIDIMNPGTNCENVLKNRQIPLLHRYYGMKPRSQKDINENVSVQEAIQREQLYFTSHQIYSMYPEYTGTNALTNKLSTLLDSHIRTFLPSIHKKIKMTLSERIKERQQLGNEFPTEVTQQLYELTNIINTSLNLFKQAMTNYDASEIQNIGKIKVDERVGKSYADFLFDKYLLICKKISEEQVFKVKMKDLIKELGKFRVQVNGFLPFEVFESQIKQKINLYETEAIVILEQLKEHVRKVLNHCIDLFPFPNNKIKKIMQDILQNFVQTEYNFTSSHIKTAFYCYKDCICSKMIDIHETESKLKQNHVYLQNDNQQKKVLYEYISKNKSFMEWTVQEIMIKAENLCNVPITMSDLQNTYTKAEEKVQNTDEVLRYSIIYYKYMDNFRKQISDQIPQCIQSLFINSLCKNLMVKVFQAIQSKEYKEIIEKNLKEDEIIATKRAKVIQSIQKLAKANDRLERLIDQGQNCNHMLSTTYGDEENYIHESLEDSDGIDD
B1 was tested, and the “stoichiometry N” value [3] was ≥ 6 protomers and 4.
